Laboratory results as given in article PMC12650144 (2025).

B1: α1s II–III loop C region peptide (residues 720–765) [not stated] / DHPR β1a subunit, full length [mouse] (parent complex)
chain 1: LKVDEFESNVNEVKDPYPSADFPGDDEEDEPEIPVSPRPRPLAELQ
chain 2: not shown

Variants of: B1
Assay: intrinsic fluorescence binding (fluorescence quenching at 340 nm); read at the last titration point, 9 µM peptide; parent: 0.66; read off a plot

Row | Variant | response
1 | chain 1 P16A, chain 1 P18A, chain 1 P23A, chain 1 P31A, chain 1 P34A, chain 1 P37A, chain 1 P39A, chain 1 P41A | ~0.93
